Measurements: patent US20130252983

Experiments:
[1] = system: V5-tagged wild-type mouse glutaminase C (GAC)
[2] = system: GACΔC, C-terminal truncation mutant of mouse glutaminase C
[3] = system: GAC (S103A), phospho-defective mutant of mouse glutaminase C
Sequence of GAC (S103A), phospho-defective mutant of mouse glutaminase C (chain, as listed by the source S103A): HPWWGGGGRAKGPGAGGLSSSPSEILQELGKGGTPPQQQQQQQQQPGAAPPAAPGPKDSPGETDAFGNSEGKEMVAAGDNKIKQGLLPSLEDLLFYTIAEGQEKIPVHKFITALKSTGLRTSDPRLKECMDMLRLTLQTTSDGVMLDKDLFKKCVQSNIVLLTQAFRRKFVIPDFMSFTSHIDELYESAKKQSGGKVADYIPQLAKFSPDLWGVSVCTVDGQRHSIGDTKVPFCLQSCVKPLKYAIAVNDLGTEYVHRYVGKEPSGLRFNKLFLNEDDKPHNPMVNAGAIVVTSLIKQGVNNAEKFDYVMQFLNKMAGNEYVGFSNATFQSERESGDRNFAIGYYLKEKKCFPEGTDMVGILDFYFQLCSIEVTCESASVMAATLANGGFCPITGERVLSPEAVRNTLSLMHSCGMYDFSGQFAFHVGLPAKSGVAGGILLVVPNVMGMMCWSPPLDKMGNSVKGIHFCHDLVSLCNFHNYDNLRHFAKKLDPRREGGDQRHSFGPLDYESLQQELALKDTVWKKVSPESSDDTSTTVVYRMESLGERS

Sequence of GACΔC, C-terminal truncation mutant of mouse glutaminase C (chain, as listed by the source mutant): as the sequence (chain, as listed by the source S103A) above, with A49S counted along it
Sequence of V5-tagged wild-type mouse glutaminase C (GAC) (chain, as listed by the source): as the sequence (chain, as listed by the source S103A) above, with A49S counted along it

mTOR (mammalian target of rapamycin)
phosphorylation of proteins immunoprecipitated with GAC after addition of radio-labeled ATP under conditions favorable for the activation of the mTOR kinase [1]: the phosphorylation of proteins immunoprecipitated with wild-type GAC and GACΔC is observed
phosphorylation of proteins immunoprecipitated with GAC after addition of radio-labeled ATP under conditions favorable for the activation of the mTOR kinase [2]: the phosphorylation of proteins immunoprecipitated with wild-type GAC and GACΔC is observed
phosphorylation of proteins immunoprecipitated with GAC after addition of radio-labeled ATP under conditions favorable for the activation of the mTOR kinase [3]: but not for proteins immunoprecipitated with GAC (S103A)
